Results from publication PMC8557876.

Test: immunofluorescence colocalisation with ER marker PDI (PCC)
Conditions: glycan lost; control: wild-type hACE2, DMSO

Q: Which localisation_or_trafficking does the source give for “human ACE2 (hACE2): N90Q/N322Q/N546Q/N53Q/N103Q” here?
A: changes
